Results on one substance are retold here after patent US20110104713A1, “PRODUCTS AND PROCESSES FOR MODULATING PEPTIDE-PEPTIDE BINDING DOMAIN INTERACTIONS” (priority 2002, published 2011).

One test has as its target T1, GST-Plk1 (full-length) (Homo sapiens, UniProt P53350).
T1 construct: SF9 cells infected with baculoviral GST-Plk1 (full-length) were lysed; made in house; host or cells: SF9 insect cells (baculovirus)
Put plainly: Plk1 kinase assay (32P-incorporation into casein) with peptide activation. The class given is biochemical. The following applies: 250 μM peptide pre-incubated 5 minutes at room temperature; three independent experiments. As to the method:
SF9 cells infected with baculoviral GST-Plk1 (full-length) were lysed in 20 mM Hepes/KOH (pH 7.5), 135 mM NaCl, 1% NP40, 5 mM EGTA, 5 μM 13-mercaptoethanol, 35 mM NaF, 0.5 mM Na3VO4, 20 mM β-glycerolphosphate, 3 μM microcystin, 1 μM okadaic acid, 10 μg/mL pepstatin, 10 μg/mL leupeptin, and 10 μg/mL aprotinin. Lysates were incubated for 2 hours at 4° C. with glutathione beads, which were subsequently washed five times with 20 mM Hepes/KOH (pH 7.5), 415 mM NaCl, 0.1% CHAPS, 5 mM EGTA, 5 μM β-mercaptoethanol, 35 mM NaF, and 0.5 mM Na3VO4 at 4° C. Bound proteins were eluted with a buffer containing 30 mM glutathione, 50 mM Hepes/KOH (pH 8.0), 25 mM NaCl, 2 mM MgCl2, 1 mM EGTA, and 5 μM β-mercaptoethanol and dialyzed against 10 mM Hepes, 10 mM NaCl, 1 mM EGTA, 1 mM DTT for 3 hours at 4° C. Kinase reactions were performed in 20 mM Hepes/KOH (pH7.5), 15 mM KCl, 10 mM MgCl2, 1 mM EGTA, 100 µM ATP, 5 μCi γ-[^32P]-ATP, 1 mM DTT, and […] casein for 15 minutes at 30° C. Reaction aliquots were removed at various time points, added to sample buffer, and boiled to arrest phosphorylation. ^32P-incorporation into casein was determined by SDS-PAGE electrophoresis, autoradiography, and densitometry using ImageQuant software (Molecular Dynamics). […]

Test [1] has as its system centrosomal localization of GST-Plk-1 PBD in U2OS cells. As to the kind of experiment: Centrosomal localization of GST-Plk-1 PBD in permeabilized U2OS cells with peptide competition. It counts as cell-based, human. The following applies: 250 μM peptide; nocodazole-arrested, Streptolysin-O permeabilized U2OS cells. As to the method:
U2OS cells were cultured in 8-well chamber slides and arrested at G2/M by treatment with nocodazole (50 ng/mL) for 14 hours. After rinsing with PBS, cells were incubated with 4 μM GST-Plk-1 PBD (residues 326-603) and Streptolysin-O (1 U/ml) in permeabilization buffer (25 mM HEPES (pH 7.9), 100 mM KCl, 3 mM NaCl, 200 mM sucrose, 20 mM NaF, 1 mM NaOVO4) for 20 minutes at 37° C. Cells were fixed in 3% paraformaldehyde/2% sucrose for 10 minutes at room temperature and extracted with a 0.5% Triton X-100 solution containing 20 mM Tris-HCl (pH 7.4), 50 mM NaCl, 300 mM sucrose, and 3 mM MgCl2 for 10 minutes at RT. […] Cells were examined using a Nikon Eclipse E600 fluorescence microscope equipped with a SPOT RTcamera and software (Diagnostic Instruments, Livingston, Scotland). Images were analyzed using NIH Image. […]
The normalized intensity of centrosome-specific Alexa Fluor 488 staining (N.I.AF488) or Texas Red staining (N.I.TR) above background was defined as ([Icentrosome−1cell]/Icell) where Icentrosome indicates the fluorescence intensity of either Alexa-Fluor 488 or Texas Red averaged over the centrosome and Icell indicates the overall fluorescence intensity averaged over the entire cell. The relative GST-PBD/γ-tubulin specific staining was then calculated as N.I.AF488/NITR.

T1 sequence (P53350 whole entry): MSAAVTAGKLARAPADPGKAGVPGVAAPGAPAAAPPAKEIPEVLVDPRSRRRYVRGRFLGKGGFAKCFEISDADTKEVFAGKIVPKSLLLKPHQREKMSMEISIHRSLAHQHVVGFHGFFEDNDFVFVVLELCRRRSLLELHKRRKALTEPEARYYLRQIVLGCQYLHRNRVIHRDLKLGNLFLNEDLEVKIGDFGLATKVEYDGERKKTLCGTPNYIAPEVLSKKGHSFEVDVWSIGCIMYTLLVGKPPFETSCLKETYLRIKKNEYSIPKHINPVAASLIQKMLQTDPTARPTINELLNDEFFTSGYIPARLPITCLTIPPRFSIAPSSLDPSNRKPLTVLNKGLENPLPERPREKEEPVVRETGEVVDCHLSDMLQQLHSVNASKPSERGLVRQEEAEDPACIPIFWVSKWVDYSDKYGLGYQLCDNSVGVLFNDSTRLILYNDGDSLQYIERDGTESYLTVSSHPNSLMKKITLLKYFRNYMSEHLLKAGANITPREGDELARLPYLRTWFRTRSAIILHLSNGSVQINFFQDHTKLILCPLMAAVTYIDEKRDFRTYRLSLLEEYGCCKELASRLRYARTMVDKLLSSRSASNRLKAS

“MAGPMQ-S-T-P-LNGAKK (MAGPMQSTPLNGAKK) [PoloBoxtide-8T]”: in the test with GST-Plk1 (full-length), the “enhancement of Plk1 kinase activity (rate of casein phosphorylation), factor” value is reported as “had no effect”. For the same substance, the “effect of peptide on centrosomal localization of Plk-1 PBD” value in test [1] is on record as “unaffected”.
